Measured values reported in the RNAGym collection of RNA variant scans (doi:10.1073/pnas.2313332121).

B1: TPR t1 (parent)
chain: GACCAAUCUGCCCUCAGAGCUCGAGAACAUCUUCGGAUGCAGAGGAGGCAGGCUUCGGUGGCGCGAUAGCGCCAACGUCCUCAACCUCCAAUGCAUCCCACCACAUGAUGAUGCCUGAAGAGCCUUGGUUUUUUG

Variants of: B1
Test: polymerase ribozyme fitness, log enrichment relative to wild type (log ratio); higher = more active; in vitro selection for triplet polymerase activity
How it was run: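 The heterodimeric triplet polymerase ribozyme's subunits were each mutagenized into PCR-built libraries and transcribed. Every library was selected once, in triplicate, by annealing with a biotinylated primer, the partner subunit and triplets, incubating frozen at −7 °C, gel-excising extended constructs, capturing on streptavidin beads and running RT-PCR. Input and output libraries were Illumina-sequenced, with genotypes kept only at ≥10 input reads and ≥1 read per output. Fitness, from inverse-variance-weighted replicate averages, is the base-2 logarithm of genotype enrichment over wild-type enrichment.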

Variant | polymerase ribozyme fitness (log ratio)
C8G G107U C123G | -2.76
U9A C49A C72A A100U | -0.384
U9G A27U U133G | -2.53
U9A A46C A50C C82G | -0.971
U9A G36U G120U | 1.67
C8U C22G U55C C73A C98A A111G U112A | -6.04
C8U A26U A83C G127C U133A | -5.14
C8U A74U C94A | -0.334
U9C G69U A100U U112A C123U | 2.09
C8G U9G C12G C49G | -0.256
C8U C22G G39C A41G G63A A118U | -3.78
C8U C28U U116A | -3.54
C8U U32C C62A G117U | -2.35
C8G U106G C114U | -1.28
U9C G57U | 0.0681
C8U C73U U78C | 0.277
U9C C56U A83U G117A | 0.635
U9A G19A G52U A105C A111G G120A | -5.2
U9A A90C | -0.569
C8G U14G G36U C62U C80U G120A | 0.635
U9A A18U U92C | -2.53
U9A A27C U30C C56G A111U | -4.95
C8G U59G C82U C85A U126C | -1.16
U9A G36A | 0.00915

Variant | polymerase ribozyme fitness (log ratio)
C8U C34U G35A C101A C114U | -6.15
C8U C70A C115U G117A | -4.95
C8U G61U C88G U109A U133C | -4.61
C8U G17U G36C G71U C82G | -4.44
C8U C72G | 0.517
U9C G17A A18G G69U G113U | -4.32
U9A C73U G117A | 0.559
C8G U14A G58C | -0.0186
C8U G44A U109A | -5.08
U9G C56U G61U | -4.53
C8G G52U C73A U92G | -2.91
U9C C72U U78C A83U A90G A121G | 2.19
C8G G63A | -0.627
C8U U14A C72A C73U | -2.99
U9C G17U U32C C49U C72U A105G | -5.59
U9C G44A C79U C86U G120A | 0.952
U9C C56G G60A C88G | -3.64
U9G A46C G61A U87A G93C C115A U116C A119C | -3.51
U9C C53G C114U U116A C123A U130C | -7.66
C8U G71A C76A G120U | -5.96
U9G C53U G61C C124G U131A | 1.49
U9A C62G C79G | -4.02
U9C G19A | -1.95
U9C G19C | -2.29

Variant | polymerase ribozyme fitness (log ratio)
C8U U59A C94U A119U | -0.404
C8G G117C C124A | -0.905
U9A A29U G63A C104A | -3.02
C8G U54G C64U C89G | -4.42
U9G A16U C82U C88U A95U U130G | -0.874
U9A C85A C97U G117C C124A | -3.01
U9A C12U C15A C53G U54C U106G | -3.06
U9C C49A C62U C123U | 1.78
U9A C72U G110C U130A | -4.28
C8U C13A A37C G61U U87G C102U | -1.74
U9C U67C C82G U109C | -6.64
C8U C73U U112A | 1.84
U9A C97G A105G C115U G117A | -7.76
U9C C15A G45C G57C U59A G120A | 0.743
C8G U9C A41C A43U G52A U112A | -0.712
C8U C72G U92A C123A | -2.13
C8U U96A U125G U131C | -1.53
C8U C15A A66U A118U A121C | -0.152
C8U G61U | 0.435
U9G C34A | -1.59
U9G C34U | -3.92
U9G C34G | -4.16
U9A C56A C82A C85A | -0.979
C8U C12U C101G A121C | -0.571

Variant | polymerase ribozyme fitness (log ratio)
U9C G25A | -6.01
C8U U21A C22U A27G C31G C56U G60A C86A U87G C115A A121C | -5.4
U9G C62U | -0.19
U9C C114A U129C | -1.92
U9G C40A U54G U81G C85A C123G | -5.22
U9C U59C A84U C104A C114U | -4.8
U9G C13G | 0.0659
C8U A18U G57A C64U C94U | -4.97
U9C G42U C53G C56A C73A C88U | -1.43
C8G U96A | 0.0383
C8G G48A G128U | -2.01
C8G U9G C22G | -3.24
U9C U96A | 0.079
C8U C40A | -1.07
C8G G58C A75C A108U U132A | -5.79
U9A G17A G113A | -3.11
C8U A43G C89G C98U G135U | -4.02
C8U U38G G61U G93A | -4.11
U9A G39C G61C U78A U87G G110U | -2
U9G C40G G110U C123G | -4.98
C8U C62U C64A | -5.43
U9A C11A G42U G61U | -1.6
C8G G48C A90U U112A | 0.378
U9A A18C G44A C70U G93C | -4.58

Variant | polymerase ribozyme fitness (log ratio)
U9C C13U C53A U87C A100U | -0.242
U9A C12A G42U A46G C53G C70U U132A | -2.02
U9G A41U U54A U78C | -1.59
U9A G19C A41U | -1.63
U9A A83G | -0.27
U9G C13A G48C C56A C72A U78A | -1.24
U9G C34A G120C | -0.929
C8U A50U C104U C123U | 1.14
U9C C15A G44U G60C A91U A121G | -1.08
U9C A29U G61A C88U C102U | -4.47
U9A G58C G71A U112A G113C G128U | -3
C8U C76A C79G C123G | 0.407
U9G A111U A118U G120A | -2.78
U9C C12U U81A C89A | -1.67
U9C C53A C123G | 1.78
U9C C11U G17A | -3.22
C8U G52U U54G G63A A118G | -3.26
U9A G61U C85U G117U | 0.0255
C8U C62U | 0.699
C8U C62A | -0.587
C8U C72G U96G | -1.03
U9A C72U C123G U134G | 2.67
U9G C11A G52A G57C U116G A121G | 0.971
C8U A29G U112A | -0.107

Variant | polymerase ribozyme fitness (log ratio)
U9A G10A C40A U78C G110U C123U | -2.19
C8U C11G G48C C56U C89U G117U | -1.01
U9G A18C C56G G120A U130A | -1.19
U9A A74G C104A C123A | -0.249
C8U C72U C82A A84C A111C | 0.264
C8U C40U C104A A119G | -1.19
U9A G39A C56A G60A | 0.000466
C8U G71U U78C C98U A119U | -1.03
C8U A27U C76G U96G | -3.38
U9C G63A | 0.19
U9G C62G G120C | 0.877
C8U U14G G60A C73U | -0.213
C8U A18C A41U A50G C72G C101U | -3.51
U9A G19U A46U C56G U133G | -4.95
C8G G117A | 0.795
U9G C12G G36A C101G | -1.32
C8U C72G G93A | -0.0349
C8U A41C C73A G122A | 0.223
C8U C53A C73G | -0.563
C8U C62U U87A A121U | 1.89
U9A C20G | -2.47
C8U C22A C62U | -4.04
U9C C20A G69C C101A | -6.63
C8U C11U A29U C70A | -3.03

Variant | polymerase ribozyme fitness (log ratio)
U9C G10A A37U | -0.108
C8U C49G | 0.889
C8U A43C C94U U130A | -2.21
U9G C53U G107C | -5.76
U9G C13U G17U U87C | -0.186
U9G C56G G61A | -2.17
C8U G39C C79U G120U | 1.3
C8U A95G C102U U106A | -3.3
C8U G57U | -0.029
U9A A91C U92A C104U | -2.18
U9C G60U C99A | -6.14
U9G A27U G39U A46U | -4
C8U A111C | 0.776
U9A G48C G77A C88U U112A | 0.603
U9G A18C C56G C72A | -3.47
U9C G71U U78G U132A | -0.414
C8G G57A C73U U78A A91U | -1.7
C8U C72G U87G C94U G122A | -0.203
C8U C49U C56U C70U C98A | -6.59
C8G U14G G61C A66C | -2.35
U9G C12G C28G C40A C85A A90C C104A G110C | -4.42
U9G C11G C94U | -4.64
U9A C15A G45C A108G | -4.55
